Biological target: Amyloid β (1–40) peptide, unlabeled, monomeric (UniProt P05067 672-711)
Assay: cell-based or functional assay

Amyloid β (1–40) peptide, unlabeled, monomeric, sequence (P05067 672-711): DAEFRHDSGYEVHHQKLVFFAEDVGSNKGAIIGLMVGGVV

B1: Human wild-type Lipocalin-type prostaglandin D synthase (L-PGDS) (natural protein, UniProt P41222 23-190, looked up)
chain: APEAQVSVQPNFQQDKFLGRWFSAGLASNSSWLREKKAALSMCKSVVAPATDGGLNLTSTFLRKNQCETRTMLLQPAGSLGSYSYRSPHWGSTYSVSVVETDYDQYALLYSQGSKGPGEDFRMATLYSRTQTPRAELKEKFTAFCKAQGFTEDTIVFLPQTDKCMTEQ
modifications: uniformly 15N labeled in the NMR titration with unlabeled Aβ40; unlabeled elsewhere
In the case of B1, the “IC50 of WT-L-PGDS for Aβ40 aggregation (ThT end-point fluorescence, 50 µM Aβ40, 37 °C)” value is reported as 980 nM, the “fold reduction of the primary nucleation rate constant of Aβ40 aggregation with L-PGDS (ThT curves fitted with Amylofit)” value is reported as 14 fold and the “fold reduction of the secondary nucleation rate constant of Aβ40 aggregation with L-PGDS (ThT curves fitted with Amylofit)” value is reported as 6 fold.

— publication PMC6715741, “Abundant neuroprotective chaperone Lipocalin-type prostaglandin D synthase (L-PGDS) disassembles the Amyloid-β fibrils” (Scientific Reports, 2019)
